Source: patent publication US7323171

Molecular target: CD2 on human T cells (human) (UniProt P06729)
Test: cell-based or functional assay

UniProt P06729, sequence (P06729 25-351 limits assumed): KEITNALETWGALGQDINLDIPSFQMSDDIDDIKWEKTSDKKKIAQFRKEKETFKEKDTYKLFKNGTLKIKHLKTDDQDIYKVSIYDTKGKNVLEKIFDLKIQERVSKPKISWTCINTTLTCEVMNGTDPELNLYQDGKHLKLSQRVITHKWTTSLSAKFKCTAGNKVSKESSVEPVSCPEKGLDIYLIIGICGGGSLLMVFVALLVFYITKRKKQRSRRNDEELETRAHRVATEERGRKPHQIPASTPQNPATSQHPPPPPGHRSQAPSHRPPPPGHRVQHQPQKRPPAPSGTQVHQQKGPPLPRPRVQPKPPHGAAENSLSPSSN

- inhibition of allogeneic T cell activation by normal skin cells ([3H]TdR incorporation), antibody at 50 µg/ml: 40%
- inhibition of autologous T cell proliferation ([3H]TdR incorporation) in response to lesional psoriatic epidermis, antibody at 50 µg/ml: 60%
Substance: anti-CD2 monoclonal antibody TS2/18
